Publication PMC10774421 (Nature Communications, 2024)

Tests used:
HiSiaP = target: T1, HiSiaP (Haemophilus influenzae, UniProt P44542, S67C/S194C); details: 50 mM Tris pH 8, 50 mM NaCl; average of triplicates; CLOSED #1, no oxidant added
T1 construct: gene siaP

[1] = target: HiSiaQM OFS #2 (Y252C/M297C in HiSiaQM ΔCys) (Haemophilus influenzae) (UniProt P44543); experiment: single-molecule TIRF microscopy
wild-type HiSiaQM = target: T2, wild-type HiSiaQM (Haemophilus influenzae, UniProt P44543); experiment: single-molecule TIRF microscopy; details: both partners purified
T2 construct: also called wt HiSiaQM; HiSiaQM wt

## CC(=O)N[C@H]1[C@H]([C@H](O)[C@H](O)CO)OC(O)(C(=O)O)C[C@@H]1O (stereo partly drawn) [Neu5Ac]
HiSiaP
  Kd: 0.8 µM

## AF647-labeled wild-type HiSiaP (K254C) (from UniProt P44542 24-329) (natural protein)
[1]
  change of the rate of interactions (against the wild-type proteins): -50%

B1: AF555-VHHQM3 (S85C) (VHH)
VHH: QLQLVETGGGLVQPGGSLRLSCTASRVTLDYHDIGWFRQAPGKEREGVSYISSSGGSTNYADSVKGRFTISRDNAKNTVYLQMNCLKPEDTAVYYCARSSAYGSSWLNPSRYDYWGQGTQVTVSS
wild-type HiSiaQM
  binding result: binds
